Biological target: T1, human serum albumin (human, UniProt P02768 25-609)
T1 construct: also called HSA; humans serum albumin
Experiment: SPR (Biacore), human serum albumin immobilized on CM5 chip, periplasmic Nanobody preparation injected in running buffer of pH 5, pH 6, pH 7 or HBS-EP+
Protocol: Human serum albumin is immobilized on a CM5 sensor chip surface via amine coupling using NHS/EDC for activation and ethanolamine for deactivation (Biacore amine coupling kit)
Approximately 1000 RU of cynomolgus and humans serum albumin respectively is immobilized. Experiments are performed at 25° C. […] This mixture is brought to pH7, pH6 and pH5 by adding HCl or NaOH (dependent on the pH of the mixture measured). Standard buffer HBS-EP+Periplasmic extracts or purified Nanobodies are diluted in running buffers of pH7, pH6 and pH5. The samples are injected for 1 min at a flow rate of 45 ul/min over the activated and reference surfaces. Those surfaces are regenerated with a 3 s pulse of glycine-HCl pH1.5+0.1% P20. Evaluation is done using Biacore T100 evaluation software.

- binding result: binds
B1: Nanobody 4A1 (VHH)
VHH: EVQLVESGGGLVQPEGSLRLSCRASGSIFSINTMGWYRQPPGKEREFVARIYPGITHYADSVKGRFTISRDNAKNTVYLQMNSLKPEDTAVYYCFYYYDDRNYWGEGTLVTVSS
notes: Injected as a periplasmic preparation of soluble Nanobody

Source: patent US20120148571A1 (Ablynx, published 2012)
